± gives the uncertainty stated by the source.
Experiment: protein stability index of a GFP-peptide fusion (yeast GPS) (PSI 1-4); higher = more stable; sorted into four equal gates, so the index is relative within each strain
In short: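 Sequencing reads from sorted gates were used to score each peptide. The library consisted of tiled 17-residue yeast protein peptides fused downstream of GFP on a Cherry-expressing plasmid, pooled and carried in yeast. Mid-log cultures in leucine-free medium were split into four equal gates by GFP/Cherry ratio, and each gate's plasmids were PCR-amplified and Illumina-sequenced. The protein stability index adds up, over all gates, the read frequency multiplied by the gate number.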

Sequence	protein stability index (doa10∆)	protein stability index (pdr5∆)	protein stability index (san1∆)	protein stability index (ubr1∆)
NMNLNPQMFLNQQAQAR [GAL11]	1.92 ± 0.035	2.42 ± 0.035	2.37 ± 0.056	2.04 ± 0.03
EKKQKTESQDVETRVQN [DPB4]	3.52 ± 0.11	3.38 ± 0.072	3.35 ± 0.048	3.3 ± 0.056
EKTINDLQRTQTLSEKE [YIL149C/MLP2]	2.97 ± 0.071	3.03 ± 0.06	2.94 ± 0.044	2.94 ± 0.042
KMEKKKSSSLSLESFMK [SNM1]	3.06 ± 0.1	3.32 ± 0.12	2.93 ± 0.14	2.97 ± 0.084
TGISQKSMSILNSFVND [HTB1]	2.96 ± 0.06	2.94 ± 0.074	2.6 ± 0.075	2.67 ± 0.087
DSTNLSDDAAQFMKRFP [ECM29]	2.65 ± 0.11	2.79 ± 0.073	1.45 ± 0.092	3.06 ± 0.1
SIAAERYDYSDEVGRRS [YCG1]	3 ± 0.075	2.99 ± 0.11	2.65 ± 0.14	3.04 ± 0.063
DSRLSRKQIDETQVLVS [BRR2]	1.61 ± 0.055	1.83 ± 0.073	1.82 ± 0.072	2.13 ± 0.041
NEQEEKSEEVKAEDDTG [RPC37]	3.2 ± 0.17		2.94 ± 0.2	2.85 ± 0.17
TTLKLSPSPILLTSAGC [NUT1]	1.47 ± 0.043	1.42 ± 0.039	1.45 ± 0.09	1.51 ± 0.036
KVIEQPITSETAMKKVE [RPL25]	3.02 ± 0.092	2.94 ± 0.066	2.88 ± 0.066	2.93 ± 0.074
HSLAYLLENFANFKTSK [RRP6]	2.68 ± 0.22	2.05 ± 0.14	2.81 ± 0.19	2.53 ± 0.17
TLKIHLKKFLQEKMDPN [IRR1]	2.86 ± 0.1	3.01 ± 0.08	3.08 ± 0.084	2.82 ± 0.099
QIQKNGPEITPEEATTI [PRP8]	2.85 ± 0.26	2.98 ± 0.15	2.83 ± 0.16	3.12 ± 0.16
NHNGSALLIEVFTALLR [ITC1]	1.68 ± 0.074	1.38 ± 0.055	1.47 ± 0.094	1.35 ± 0.053
VFHAAFEGDSNMLICAP [BRR2]	2.25 ± 0.048	2.41 ± 0.042	2.33 ± 0.045	2.615 ± 0.026
ETYGSMEMSEKIQFILE [RPN5]	2.41 ± 0.12	2.94 ± 0.082	2.53 ± 0.079	2.77 ± 0.079
VVSCSQHGFEVQVGPMK [RPB7]	3.09 ± 0.12	3.15 ± 0.098	3.02 ± 0.089	3.23 ± 0.12
RAIILERNAAYQKEYET [RPL7A]	2.59 ± 0.067	2.81 ± 0.05	2.62 ± 0.05	2.89 ± 0.079
LLEQDTSTEKLYKLNDK [PRE9]	2.99 ± 0.062	3.08 ± 0.07	2.91 ± 0.058	2.91 ± 0.056
SGNSANNMNVNMNLNPQ [GAL11]	2.85 ± 0.046	2.87 ± 0.042	2.73 ± 0.033	2.93 ± 0.034
DDTWYNLTEFVQMDKIR [AAR2]	2.82 ± 0.11	2.88 ± 0.081	2.79 ± 0.061	2.83 ± 0.084
TNIRRIIQDNISPRLVV [RRP46]	1.58 ± 0.037	1.69 ± 0.041	1.75 ± 0.07	1.82 ± 0.03
EINNLIQLPASLAATYS [ARP9]	1.59 ± 0.063	1.87 ± 0.045	1.96 ± 0.07	1.65 ± 0.047
FEQFEKFYEEKLWFQLS [RPN9]	3.08 ± 0.27	2.58 ± 0.26		1.72 ± 0.13
FMRNGLLEGLNEKIEKR [UBP6]	2.99 ± 0.29	2.87 ± 0.18	3.21 ± 0.26	3.55 ± 0.23

Sequence	protein stability index (doa10∆)	protein stability index (pdr5∆)	protein stability index (san1∆)	protein stability index (ubr1∆)
LSSHSSTNSNSKPSTAS [RPN4]	2.61 ± 0.087	2.71 ± 0.082	2.93 ± 0.059	2.86 ± 0.052
ATADTTHLHEALDIVCS [NUT1]	2.12 ± 0.056	2.55 ± 0.063	2.48 ± 0.12	2.69 ± 0.041
GTPKTDSFIFDGTAKEV [MED4]	2.32 ± 0.041	2.43 ± 0.046	2.58 ± 0.071	2.65 ± 0.045
TDLPIETAAMASLALAH [RPN1]	1.5 ± 0.046	1.66 ± 0.043	1.58 ± 0.063	1.43 ± 0.045
LITVMEKSPDPTIRSNA [YCS4]	2.35 ± 0.052	2.48 ± 0.051	2.34 ± 0.053	2.57 ± 0.038
RSQDVRSTDRDRVKVIE [CSL4]	3.01 ± 0.16		3.27 ± 0.12	2.97 ± 0.079
QDSIFQRIIADLSADKP [SRB8]	2.63 ± 0.046	2.56 ± 0.057	2.59 ± 0.048	2.52 ± 0.032
LDFIGRRGTALGIKKEK [RPB2]	1.68 ± 0.075	2.03 ± 0.097	2.27 ± 0.059	2.07 ± 0.08
SLSDNDLAVCATIIGII [ECM29]	2.71 ± 0.072	2.83 ± 0.056	2.78 ± 0.053	2.75 ± 0.038
LNELETLIKKKQDEKKS [SMC2]	3.24 ± 0.087	3.27 ± 0.092	3.19 ± 0.063	2.91 ± 0.055
DESYARAYRIIRAHQTE [QCR7]	3.17 ± 0.17	3.43 ± 0.17	3.14 ± 0.22	3.41 ± 0.091
ENIEPLDPINLPLDSQD [PRP8]	2.87 ± 0.078	2.97 ± 0.089	2.49 ± 0.11	3.04 ± 0.067
VGIDTHTATDIYQTLIA [SNF2]	2.12 ± 0.05	2.03 ± 0.048	1.85 ± 0.05	1.72 ± 0.028
MFIEEPTRMVRVAKGSG [SRP54]	3.09 ± 0.19	2.95 ± 0.23	2.75 ± 0.24	3.26 ± 0.15
IPGGPKFEPLYPREEEE [PRP8]	3.01 ± 0.11	2.78 ± 0.15	3.01 ± 0.11	2.91 ± 0.13
LILGLNTSIAQFDIQSP [YML103C/NUP188]	1.94 ± 0.044	1.81 ± 0.045	2.29 ± 0.071	2.6 ± 0.044
ILSGFHNAGPVAGAGAA [RPP1B]	3.01 ± 0.072	2.97 ± 0.061	2.74 ± 0.07	2.65 ± 0.099
VFQAKMMDMLKQTGRDQ [RPN11]	2.56 ± 0.061	2.58 ± 0.07	2.52 ± 0.077	2.96 ± 0.062
TSTGIIRCHREDCDLVI [POP5]	2.67 ± 0.071	2.96 ± 0.077	2.71 ± 0.075	2.56 ± 0.066
LSSAGAKSTVETFISSM [RIP1]	3.08 ± 0.17	2.8 ± 0.13	2.86 ± 0.072	2.69 ± 0.11
YKLFIWLVVPTIYNLQH [YML031W/NDC1]	1.36 ± 0.033	1.51 ± 0.032	1.36 ± 0.059	1.26 ± 0.029
HENYIQDDDFPLDDAGT [MCD1]	2.95 ± 0.054	2.98 ± 0.051	2.99 ± 0.041	3 ± 0.046
ESYNQNDWKLETERLIS [SIN4]	3.4 ± 0.09	3.21 ± 0.14	3.29 ± 0.066	3.15 ± 0.11
SYFLKLLGNCYSLRLIN [SRB8]	2.81 ± 0.065	2.75 ± 0.06	2.48 ± 0.061	2.96 ± 0.069
QNLRKELLIYKKSQCKK [YIL149C/MLP2]	1.75 ± 0.078	2.35 ± 0.086	1.84 ± 0.086	1.63 ± 0.068
LESWWLVLGEVSKKELY [BRR2]	1.68 ± 0.16	1.39 ± 0.14	1.11 ± 0.17	

Sequence	protein stability index (doa10∆)	protein stability index (pdr5∆)	protein stability index (san1∆)	protein stability index (ubr1∆)
LDLLRPVVRAPTVKYNR [RPL13A]	1.64 ± 0.13	2.38 ± 0.2	1.7 ± 0.17	2.08 ± 0.11
DHDDSTDDADDHINWEH [NSL1]	3.31 ± 0.088	3.31 ± 0.094	3.26 ± 0.056	3.35 ± 0.04
DTVSWFKQKYDADVLDK [RPL11A]	2.06 ± 0.044	1.74 ± 0.044	1.64 ± 0.077	1.97 ± 0.039
YDVLHDVFTINPHQKDQ [YML103C/NUP188]		2.15 ± 0.098	2.12 ± 0.13	2.61 ± 0.25
GAVSLNPSITRLEEESS [RRP4]	3 ± 0.2	3.03 ± 0.14	3.07 ± 0.1	2.35 ± 0.08
LLRRLKKDVEKELPDKV [SNF2]		3.67 ± 0.24	3.36 ± 0.092	3.38 ± 0.12
IEDLRADINSNRLSNPQ [YOR098C/NUP1]	2.64 ± 0.09	2.8 ± 0.076	2.72 ± 0.06	2.93 ± 0.061
AAEPMDSKMIQDLSRNT [SNU114]	2.93 ± 0.18		3.18 ± 0.19	
KLNDSQRKTVNSDDILS [POP1]	2.3 ± 0.075	1.99 ± 0.1	2.38 ± 0.087	2.89 ± 0.093
GPENALNVYHYFGENSS [YJL039C/NUP192]	2.05 ± 0.032	2.05 ± 0.042	2.06 ± 0.053	2.65 ± 0.031
EKLLRHVDSLIEDFVDG [SRB7]	3.2 ± 0.08	3.2 ± 0.083	3.22 ± 0.061	3.24 ± 0.057
TPYSNESGLVNADLDVK [RPO21]	2.75 ± 0.054	2.96 ± 0.073	3.02 ± 0.056	2.87 ± 0.046
NQILQTEIENYLLENNQ [YDL116W/NUP84]	1.88 ± 0.052	2.24 ± 0.038	2.19 ± 0.066	2.13 ± 0.043
EAKSFQDEAELVEEKTP [RPC82]	3.53 ± 0.12	3.46 ± 0.14	3.51 ± 0.14	3.5 ± 0.1
NLLTPQPTNFTTKRLWS [MCD1]	2.79 ± 0.074	2.79 ± 0.063	2.73 ± 0.064	2.85 ± 0.065
QQAQARLQQGRRLPMTM [SNF2]	3.1 ± 0.065	3.15 ± 0.055	3.24 ± 0.035	3.22 ± 0.048
KLRETLVKIDDLSANQR [SMC1]	3.11 ± 0.11	3.29 ± 0.12	3.07 ± 0.11	3.09 ± 0.077
ISQVSSIHAIGSIKEDY [RPB7]	2.27 ± 0.077	2.65 ± 0.067	2.32 ± 0.084	2.79 ± 0.1
RFKSQFLYVLIPAGIYW [QCR8]	1.75 ± 0.14	2.15 ± 0.069	2.07 ± 0.12	2.37 ± 0.092
LEQFMERNNIGEICKNY [YDL116W/NUP84]	2.69 ± 0.11	2.6 ± 0.076	2.72 ± 0.14	2.44 ± 0.069
PAFSNSNGFNNVTFGSK [YMR153W/NUP53]	2.68 ± 0.054	2.96 ± 0.067	3.1 ± 0.037	3.13 ± 0.048
EKLINNSDDCMMEEIIN [ECM29]	3.36 ± 0.11	3.1 ± 0.11	3.1 ± 0.066	3.13 ± 0.12
HYVSTSKISQMAQNKTH [YLR018C/POM34]	1.56 ± 0.032	2.02 ± 0.035	1.78 ± 0.058	1.87 ± 0.027
IRITSLQGDLTFTKKCL [SIR4]	2.87 ± 0.068	2.71 ± 0.078	2.81 ± 0.085	2.79 ± 0.059
YESQTFSSKNEWRKSAI [PRP8]	3.23 ± 0.076	3.28 ± 0.063	3.29 ± 0.06	3.01 ± 0.059
KEASQEDDNNNVEKPSS [YLR335W/NUP2]	3.11 ± 0.088	3.22 ± 0.071	3.06 ± 0.053	3.18 ± 0.066
